Data reported in patent publication US20200317768A1 (published 2020).
Substitutions are numbered along the chain they refer to. Numbers in names are those of the source.

B1: MS103240H795-TT24/M103202L1045-SK1 (antibody, human IgG1, kappa)
heavy: QVQLVESGGGLVQPGGSLRLSCAVSGIDLSHDDISWVRQAPGKGLEWVSIISYAGSTYYASWAKGRLTISKDTSKNQVVLTMTNMDPVDTATYYCARGVPAYSHGGDLWGQGTLVTVSSASTKGPSVFPLAPSSKSTSGGTAALGCLVKDYFPEPVTVSWNSGALTSGVHTFPAVLQSSGLYSLSSVVTVPSSSLGTQTYICNVNHKPSNTKVDKKVEPKSCDKTHTCPPCPAPELLGGDSVFLFPPKPKDVLMISRTPEVTCVVVDVAHEDPEVKFNWYVDGVEVHNAKTKPREEQYNSTYRVVSVLPVLHRDWLNGKEYKCKVSNKALPKPIEKTISKAKGQRREPQVYTLPPSREEMTKNQVSLTCLVKGFYPSDIAVEWESNGQPENNYKTTPPVLDSDGSFFLYSKLTVDKSRWQQGNVFSCSVMHEALHNHYTQKSLSLSP
light: DIVMTQSPATLSLSPGERATLSCTTSQSVYHENWLSWFQQKPGQPPKLLIYWASTLAYGVPSRFSGSGSGTDFTLTISSLQPEDAATYYCAGGYGGGRYAFGQGTKVEIKRTVAAPSVFIFPPSDEQLKSGTASVVCLLNNFYPREAKVQWKVDNALQSGNSQESVTEQDSKDSTYSLSSTLTLSKADYEKHKVYACEVTHQGLSSPVTKSFNRGEC
notes: CH = SG1 with P238D/T250V/S267A/T307P/Q311R/A330K/P343R (EU numbering)
B2: MS103240H795-TT27/M103202L1045-SK1 (antibody, human IgG1, kappa)
heavy: B1 heavy with L236Y, A269S, R345P, D415K
light: B1 light
notes: CH = SG1 with L234Y/P238D/T250V/T307P/Q311R/A330K/D413K (EU numbering)
B3: MS103240H795-TT32/M103202L1045-SK1 (antibody, human IgG1, kappa)
heavy: B1 heavy with L236Y, V266I, A269S
light: B1 light
notes: CH = SG1 with L234Y/P238D/T250V/V264I/T307P/Q311R/A330K/P343R (EU numbering)
B4: MS103240H795-TT25/M103202L1045-SK1 (antibody, human IgG1, kappa)
heavy: B1 heavy with R345P, D415K
light: B1 light
notes: CH = SG1 with P238D/T250V/S267A/T307P/Q311R/A330K/D413K (EU numbering)
B5: MS103240H795-TT28/M103202L1045-SK1 (antibody, human IgG1, kappa)
heavy: B1 heavy with L236Y
light: B1 light
notes: CH = SG1 with L234Y/P238D/T250V/S267A/T307P/Q311R/A330K/P343R (EU numbering)
B6: MS103240H795-TT35/M103202L1045-SK1 (antibody, human IgG1, kappa)
heavy: B1 heavy with L236Y, V266I, R345P, D415K
light: B1 light
notes: CH = SG1 with L234Y/P238D/T250V/V264I/S267A/T307P/Q311R/A330K/D413K (EU numbering)
B7: MS103240H795-TT30/M103202L1045-SK1 (antibody, human IgG1, kappa)
heavy: B1 heavy with V266I
light: B1 light
notes: CH = SG1 with P238D/T250V/V264I/S267A/T307P/Q311R/A330K/P343R (EU numbering)
B8: MS103240H795-TT34/M103202L1045-SK1 (antibody, human IgG1, kappa)
heavy: B1 heavy with L236Y, V266I
light: B1 light
notes: CH = SG1 with L234Y/P238D/T250V/V264I/S267A/T307P/Q311R/A330K/P343R (EU numbering)
B9: MS103240H795-TT33/M103202L1045-SK1 (antibody, human IgG1, kappa)
heavy: B1 heavy with L236Y, V266I, A269S, R345P, D415K
light: B1 light
notes: CH = SG1 with L234Y/P238D/T250V/V264I/T307P/Q311R/A330K/D413K (EU numbering)
B10: MS103240H795-TT26/M103202L1045-SK1 (antibody, human IgG1, kappa)
heavy: B1 heavy with L236Y, A269S
light: B1 light
notes: CH = SG1 with L234Y/P238D/T250V/T307P/Q311R/A330K/P343R (EU numbering)
B11: MS103240H795-TT29/M103202L1045-SK1 (antibody, human IgG1, kappa)
heavy: B1 heavy with L236Y, R345P, D415K
light: B1 light
notes: CH = SG1 with L234Y/P238D/T250V/S267A/T307P/Q311R/A330K/D413K (EU numbering)
B12: MS103240H795-TT31/M103202L1045-SK1 (antibody, human IgG1, kappa)
heavy: B1 heavy with V266I, R345P, D415K
light: B1 light
notes: CH = SG1 with P238D/T250V/V264I/S267A/T307P/Q311R/A330K/D413K (EU numbering)

What follows are binders tested against T1, human FcγRIIaH extracellular domain, C-terminal His-tag (human, UniProt P12318 34-217) (assay: SPR; KD of SG1 divided by KD of variant;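 note: relative to parent M103205H795-SG1 carrying the SG1 human heavy chain constant region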).
T1 construct: also called human FcγRIIa (type H); FcgRIIaH; not shown: His-tag added to the C-terminus
T1 sequence: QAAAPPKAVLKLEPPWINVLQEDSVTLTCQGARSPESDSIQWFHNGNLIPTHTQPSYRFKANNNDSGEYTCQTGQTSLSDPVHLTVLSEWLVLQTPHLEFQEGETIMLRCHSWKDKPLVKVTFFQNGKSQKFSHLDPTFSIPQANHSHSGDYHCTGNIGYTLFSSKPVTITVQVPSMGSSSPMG
Protocol: (§1) The kinetic analysis of interactions between these antibodies and FcγR was carried out using BIACORE® T200 or BIACORE® 4000 (GE Healthcare). HBS-EP+ (GE Healthcare) was used as the running buffer, and the measurement temperature was set to 25° C. A chip produced by immobilizing Protein A. Protein A/G or mouse anti-human IgG kappa light chain (BD Biosciences) onto a Series S Sensor Chip CM4 or CM5 (GE Healthcare) by the amine-coupling method was used. […] After the measurement, the antibody captured on the chip was washed off by allowing reaction with 10 mM glycine-HCl, pH1.5 and 25 mM NaOH so that the chip was regenerated and used repeatedly. The sensorgrams obtained as measurement results were analyzed by the 1:1 Langmuir binding model using the BIACORE® Evaluation Software to calculate the binding rate constant ka (L/mol/s) and dissociation rate constant kd (l/s), and the dissociation constant KD (mol/L) was calculated from these values. […] Regarding such interactions, KD values were calculated using the following 1:1 binding model described in BIACORE® T100 Software Handbook BR1006-48 Edition AE.
(§2) Human FcγRIIb-enhanced Fc variants with anti-myostatin variable region were constructed and their affinity for human FcγRs was evaluated. […] In addition, substitutions (Q311R/D413K or […]) were also introduced. The variants were expressed using M103202L1045-SK1 as light chain and their affinity to human FcγRs was analyzed according to the method shown in Example 34.

First: B1
Second: B2
The “KD fold (SG1 = 1)” value of the first is higher: 0.015 fold for the first, 0.014 fold for the second.

Going from B3 to B4, the “KD fold (SG1 = 1)” value rises from 0.015 fold to 0.034 fold.

First: B5
Second: B6
The “KD fold (SG1 = 1)” value of the first is lower: 0.016 fold for the first, 0.03 fold for the second.

Compared with B7, B8 is higher in “KD fold (SG1 = 1)” value: 0.005 fold for the first, 0.034 fold for the second.

First: B9
Second: B10
The “KD fold (SG1 = 1)” value of the first is higher: 0.018 fold for the first, 0.011 fold for the second.

First: B11
Second: B12
The “KD fold (SG1 = 1)” value of the first is higher: 0.02 fold for the first, 0.007 fold for the second.

Each binder was assayed against T2, human FcγRIIb extracellular domain, C-terminal His-tag (human, UniProt P31994 43-217) (assay: SPR; KD of SG1 divided by KD of variant;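 note: relative to parent M103205H795-SG1 carrying the SG1 human heavy chain constant region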).
T2 construct: also called FcgRIIb; not shown: His-tag added to the C-terminus
T2 sequence: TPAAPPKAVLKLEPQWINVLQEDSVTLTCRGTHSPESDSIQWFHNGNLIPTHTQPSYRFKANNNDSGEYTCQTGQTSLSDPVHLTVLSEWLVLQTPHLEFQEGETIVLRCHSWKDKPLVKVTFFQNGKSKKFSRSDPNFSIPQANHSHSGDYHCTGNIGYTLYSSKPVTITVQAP
Protocol: as §1, §2

Compared with B1, B2 is higher in “KD fold (SG1 = 1)” value: 4.8 fold for the first, 7.1 fold for the second.

Compared with B3, B4 is lower in “KD fold (SG1 = 1)” value: 14.5 fold for the first, 5.8 fold for the second.

Compared with B5, B6 is higher in “KD fold (SG1 = 1)” value: 6.8 fold for the first, 13.5 fold for the second.

First: B7
Second: B8
The “KD fold (SG1 = 1)” value of the first is lower: 10.2 fold for the first, 11.8 fold for the second.

Going from B9 to B10, the “KD fold (SG1 = 1)” value falls from 16.1 fold to 5.3 fold.

First: B11
Second: B12
The “KD fold (SG1 = 1)” value of the first is lower: 7.2 fold for the first, 10.4 fold for the second.

Biological target: T3, human FcγRIIaR extracellular domain, C-terminal His-tag (human, UniProt P12318 34-217)
T3 construct: also called human FcγRIIa (type R); FcgRIIaR; not shown: His-tag added to the C-terminus
T3 chain: T1 sequence with H134R
Experiment: SPR; KD of SG1 divided by KD of variant;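 note: relative to parent M103205H795-SG1 carrying the SG1 human heavy chain constant region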
Protocol: as §1, §2

B1 and B2 are the same in “KD fold (SG1 = 1)” value: 0.08 fold for the first, 0.08 fold for the second.

Compared with B3, B4 is lower in “KD fold (SG1 = 1)” value: 0.09 fold for the first, 0.08 fold for the second.

Compared with B5, B6 is lower in “KD fold (SG1 = 1)” value: 0.14 fold for the first, 0.12 fold for the second.

Going from B7 to B8, the “KD fold (SG1 = 1)” value rises from 0.08 fold to 0.12 fold.

Going from B9 to B10, the “KD fold (SG1 = 1)” value falls from 0.09 fold to 0.05 fold.

Going from B11 to B12, the “KD fold (SG1 = 1)” value falls from 0.15 fold to 0.06 fold.

What follows are binders tested against T4, human FcγRIIIaV extracellular domain, C-terminal His-tag (human, UniProt P08637 17-208) (assay: SPR; KD of SG1 divided by KD of variant;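 note: relative to parent M103205H795-SG1 carrying the SG1 human heavy chain constant region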).
T4 construct: also called FcgRIIIaV; not shown: His-tag added to the C-terminus
T4 sequence (P08637 17-208 F176V): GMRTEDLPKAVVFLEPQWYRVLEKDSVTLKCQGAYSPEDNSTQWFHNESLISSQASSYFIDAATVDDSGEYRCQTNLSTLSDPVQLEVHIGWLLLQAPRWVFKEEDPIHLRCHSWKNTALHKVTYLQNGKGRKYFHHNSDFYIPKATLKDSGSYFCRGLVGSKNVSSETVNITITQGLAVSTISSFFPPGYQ
Protocol: as §1, §2

Compared with B1, B2 is higher in “KD fold (SG1 = 1)” value: 0.003 fold for the first, 0.006 fold for the second.

Going from B3 to B4, the “KD fold (SG1 = 1)” value falls from 0.007 fold to 0.006 fold.

Compared with B5, B6 is lower in “KD fold (SG1 = 1)” value: 0.01 fold for the first, 0.004 fold for the second.

Compared with B7, B8 is lower in “KD fold (SG1 = 1)” value: 0.012 fold for the first, 0.008 fold for the second.

Going from B9 to B10, the “KD fold (SG1 = 1)” value rises from 0.002 fold to 0.004 fold.

First: B11
Second: B12
The “KD fold (SG1 = 1)” value of the first is higher: 0.009 fold for the first, 0.003 fold for the second.

Each binder was assayed against T1, human FcγRIIaH extracellular domain, … (assay: SPR (BIACORE), antibody captured, soluble FcgR as analyte, 25C).
Protocol: as §1, §2

B1 and B2 are within 1.5-fold of each other in Kd: 49 µM for the first, 52 µM for the second.

Compared with B3, B4 is 2.3-fold lower in Kd: 50 µM for the first, 22 µM for the second. The second binds more tightly here.

Going from B5 to B6, the Kd falls from 48 µM to 25 µM (1.9-fold).

Compared with B7, B8 is 6.8-fold lower in Kd: 150 µM for the first, 22 µM for the second.

Compared with B9, B10 is 1.6-fold higher in Kd: 42 µM for the first, 69 µM for the second.

Going from B11 to B12, the Kd rises from 37 µM to 110 µM (3-fold). The first binds more tightly here.

These binders were tested against T2, human FcγRIIb extracellular domain, … in the same assay as above.
Protocol: as §1, §2

B1 and B2 are within 1.5-fold of each other in Kd: 1.2 µM for the first, 0.82 µM for the second.

Compared with B3, B4 is 2.5-fold higher in Kd: 0.4 µM for the first, 1 µM for the second.

First: B5
Second: B6
The Kd of the first is 2-fold higher: 0.85 µM for the first, 0.43 µM for the second.

B7 and B8 are within 1.5-fold of each other in Kd: 0.57 µM for the first, 0.49 µM for the second.

Compared with B9, B10 is 3.1-fold higher in Kd: 0.36 µM for the first, 1.1 µM for the second. The first binds more tightly here.

B11 and B12 are within 1.5-fold of each other in Kd: 0.81 µM for the first, 0.56 µM for the second.

Biological target: T3, human FcγRIIaR extracellular domain, …
Experiment: as above
Protocol: as §1, §2

B1 and B2 are within 1.5-fold of each other in Kd: 13 µM for the first, 14 µM for the second.

B3 and B4 are within 1.5-fold of each other in Kd: 12 µM for the first, 13 µM for the second.

B5 and B6 are within 1.5-fold of each other in Kd: 7.7 µM for the first, 9 µM for the second.

Going from B7 to B8, the Kd falls from 14 µM to 8.9 µM (1.6-fold).

First: B9
Second: B10
The Kd of the first is 1.8-fold lower: 12 µM for the first, 21 µM for the second. The first binds more tightly here.

First: B11
Second: B12
The Kd of the first is 2.5-fold lower: 7.5 µM for the first, 19 µM for the second.

These binders were tested against T4, human FcγRIIIaV extracellular domain, … in the same assay as above.
Protocol: as §1, §2

Going from B1 to B2, the Kd falls from 260 µM to 130 µM (2-fold). The second binds more tightly here.

B3 and B4 are within 1.5-fold of each other in Kd: 110 µM for the first, 140 µM for the second.

Compared with B5, B6 is 2.2-fold higher in Kd: 82 µM for the first, 180 µM for the second.

B7 and B8 are within 1.5-fold of each other in Kd: 66 µM for the first, 96 µM for the second.

Going from B9 to B10, the Kd falls from 440 µM to 200 µM (2.2-fold). The second binds more tightly here.

Going from B11 to B12, the Kd rises from 89 µM to 290 µM (3.3-fold).
